# Data published in patent US20140193415A1 (Hoffmann-La Roche, published 2014).
# Target: human EGFR on human tumor cells (A549, BxPC3) (human, UniProt P00533 25-1200)
# Test: cell-based or functional assay
Binder,Inhibition of EGFR phosphorylation (IC50) A549 [nM],Inhibition of EGFR phosphorylation (IC50) BxPC3 [nM]
"OA-F13B5-scFab-GA201 (bispecific antibody, human IgG1, kappa) heavy 1: not shown heavy 2: not shown light: DIQMTQSPSSLSASVGDRVTITCRASQGINNYLNWYQQKPGKAPKRLIYNTNNLQTGVPSRFSGSGSGTEFTLTISSLQPEDFATYYCLQHNSFPTFGQGTKLEIKRTVAAPSVFIFPPSDEQLKSGTASVVCLLNNFYPREAKVQWKVDNALQSGNSQESVTEQDSKDSTYSLSSTLTLSKADYEKHKVYACEVTHQGLSSPVTKSFNRGEC",0.23,0.82
"OA-L31D11-scFab-GA201 (bispecific antibody, human IgG1, kappa) heavy 1: not shown heavy 2: not shown light: DIQMTQSPSSLSASVGDRVTITCRASQGINNYLNWYQQKPGKAPKRLIYNTNNLQTGVPSRFSGSGSGTEFTLTISSLQPEDFATYYCLQHNSFPTFGQGTKLEIKRTVAAPSVFIFPPSDEQLKSGTASVVCLLNNFYPREAKVQWKVDNALQSGNSQESVTEQDSKDSTYSLSSTLTLSKADYEKHKVYACEVTHQGLSSPVTKSFNRGEC",0.19,0.47
"OA-Ak18-scFab-GA201 (bispecific antibody, V domains shown) VH 1: QVELVESGGGVVQPGRSQRLSCAASGFTFSSYGMHWVRQAPGKGLEWVAIIWFDGSSTYYADSVRGRFTISRDNSKNTLYLQMNSLRAEDTAVYFCARELGRRYFDLWGRGTLVSVSS VL 1: EIVLTQSPATLSLSPGERATLSCRASQSVSSYLAWYQQKPGQAPRLLIYDASKRATGIPARFSGSGSGTDFTLTISSLEPEDFAVYYCQQRSKWPPWTFGQGTKVESK VH 2: QVQLVQSGAEVKKPGSSVKVSCKASGFTFTDYKIHWVRQAPGQGLEWMGYFNPNSGYSTYAQKFQGRVTITADKSTSTAYMELSSLRSEDTAVYYCARLSPGGYYVMDAWGQGTTVTVSS VL 2: DIQMTQSPSSLSASVGDRVTITCRASQGINNYLNWYQQKPGKAPKRLIYNTNNLQTGVPSRFSGSGSGTEFTLTISSLQPEDFATYYCLQHNSFPTFGQGTKLEIKRT",0.23,1.67
